{"source": "patent US20260098102A1", "about": "(NATIONAL UNIVERSITY CORPORATION KOBE UNIVERSITY, published 2026)", "key": {"monkey SIRPA protein": {"target": "T1, monkey SIRPA protein (cynomolgus monkey, UniProt P78324 31-504 (human entry))", "T1 construct": "Expressed on 293α cells from pcDNA3.2 V5-DEST or pFLAG V5-DEST vectors; also called cynomolgus monkey SIRPA; cSIRPA", "T1 chain": "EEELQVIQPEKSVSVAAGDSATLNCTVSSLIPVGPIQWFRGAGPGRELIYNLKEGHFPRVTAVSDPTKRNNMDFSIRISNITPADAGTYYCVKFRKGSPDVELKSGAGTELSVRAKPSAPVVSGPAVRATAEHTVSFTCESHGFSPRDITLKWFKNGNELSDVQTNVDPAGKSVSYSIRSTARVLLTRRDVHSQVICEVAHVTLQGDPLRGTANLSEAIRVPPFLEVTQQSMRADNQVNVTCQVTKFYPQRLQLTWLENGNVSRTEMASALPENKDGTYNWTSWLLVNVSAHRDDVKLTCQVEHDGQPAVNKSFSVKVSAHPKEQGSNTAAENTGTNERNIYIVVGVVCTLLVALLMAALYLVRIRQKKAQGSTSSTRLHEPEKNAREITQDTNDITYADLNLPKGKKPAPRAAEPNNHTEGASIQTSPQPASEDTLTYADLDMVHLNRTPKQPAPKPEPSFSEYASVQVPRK", "experiment": "blocking cell-based ELISA: peroxidase-labeled CD47-Fc (1 µg/mL) on 293α cells expressing monkey SIRPA; y axis = CD47-Fc signal relative to no antibody (100)", "description": "(§1) After the culture supernatant of human SIRPA or monkey SIRPA expression vector-introduced 293α cells prepared in Example 8)-1 was removed, 50 μL per well of hD13_HIL3, hD13_HIL4h, hD13_H2L2, or hD13_H2L3 diluted with 5% FBS-containing PBS to a final concentration of 0 to 10,000 ng/ml was added to each of pcDNA3.2 V5-DEST-SIRPA_V1, pcDNA3.2 V5-DEST-SIRPA_V2, pcDNA3.2 V5-DEST-monkey SIRPA, and pcDNA3.2 V5-DEST-introduced 293α cells, immediately followed by addition of peroxidase-labeled CD47-Fc prepared with 5% FBS-containing PBS at 1 μg/mL, and the mixture was allowed to stand at 4° C. for one hour. Thereafter, the SIRPA-CD47 binding inhibitory activity was evaluated in the same manner as in 1)-6-3."}, "SIRPA_V1_IgV": {"target": "T2, SIRPA_V1_IgV (human, UniProt P78324 31-149)", "T2 construct": "Secreted recombinant protein from FreeStyle 293F cells", "T2 sequence (P78324 other isoform, or with tags, fused parts or gaps limits assumed)": "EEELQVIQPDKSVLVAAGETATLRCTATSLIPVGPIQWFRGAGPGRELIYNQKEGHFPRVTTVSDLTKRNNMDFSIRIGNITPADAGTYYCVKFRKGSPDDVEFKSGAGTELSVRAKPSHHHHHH", "experiment": "SPR Biacore T200, antibody captured on anti-human IgG (Fc), SIRPA_V1_IgV as analyte, 1:1 model", "description": "The dissociation constants of hD13_HIL3, hD13_HIL4, hD13_H2L2, and hD13_H2L3 prepared in Example 7 against human SIRPA_V1_IgV and monkey SIRPA_ECD prepared in Example 1 were measured by a capture method of capturing a humanized antibody as a ligand to an Anti-Human IgG (Fc) antibody immobilized using Human Antibody Capture Kit (GE Healthcare Bioscience Corp.) and measuring an antigen as an analyte, using Biacore T200 (GE Healthcare Bioscience Corp.). HBS-EP+ (GE Healthcare Bioscience Corp.) was used as a running buffer, and CM5 (GE Healthcare Bioscience Corp.) was used as a sensor chip. Onto the chip, 1 μg/mL humanized antibody was added at 10 μL/min for 60 seconds, and then a serially diluted solution (0.5 to 8 μg/mL) of human SIRPA protein or a serially diluted solution (1 to 16 μg/mL) of monkey SIRPA protein was added as an antigen at a flow rate of 30 μL/min for 120 seconds, and subsequently the dissociation phase for 600 seconds was monitored. As a regenerant, 3 M magnesium chloride (GE Healthcare Bioscience Corp.) was added at a flow rate of 20 μL/min for 30 seconds. For data analysis, a binding rate constant (ka), a dissociation rate constant (kd), and a dissociation constant (KD; KD=kd/ka) were calculated using a 1:1 binding model."}, "human SIRPA_V2 protein": {"target": "T3, human SIRPA_V2 protein (human, UniProt P78324 31-504)", "T3 construct": "Expressed on 293α cells from pcDNA3.2 V5-DEST or pFLAG V5-DEST (FLAG-tagged) vectors; also called human SIRPA Variant 2; ECD variant (full-length, amino acids 1 to 504)", "T3 sequence (P78324 other isoform, or with tags, fused parts or gaps limits assumed)": "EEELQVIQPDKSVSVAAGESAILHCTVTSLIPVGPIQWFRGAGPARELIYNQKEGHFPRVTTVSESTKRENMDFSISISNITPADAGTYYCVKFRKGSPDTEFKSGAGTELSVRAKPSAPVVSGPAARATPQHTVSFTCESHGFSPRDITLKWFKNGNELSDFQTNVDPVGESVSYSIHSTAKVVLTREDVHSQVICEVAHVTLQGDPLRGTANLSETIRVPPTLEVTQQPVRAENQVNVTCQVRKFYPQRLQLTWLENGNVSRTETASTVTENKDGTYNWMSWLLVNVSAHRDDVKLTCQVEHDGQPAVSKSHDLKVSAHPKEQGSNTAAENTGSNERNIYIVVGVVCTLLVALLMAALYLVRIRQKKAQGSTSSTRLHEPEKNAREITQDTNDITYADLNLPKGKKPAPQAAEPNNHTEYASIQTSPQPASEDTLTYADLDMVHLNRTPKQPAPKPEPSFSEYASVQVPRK", "experiment": "blocking cell-based ELISA: peroxidase-labeled CD47-Fc (1 µg/mL) on 293α cells expressing SIRPA_V2; y axis = CD47-Fc signal relative to no antibody (100)", "description": "as §1"}, "human SIRPA_V6": {"target": "T4, human SIRPA_V6 (human, UniProt P78324 31-504)", "T4 construct": "FLAG-tagged (pFLAG V5-DEST), on 293α cells; also called human SIRPA Variant 6", "T4 sequence (P78324 31-504 S105P limits assumed)": "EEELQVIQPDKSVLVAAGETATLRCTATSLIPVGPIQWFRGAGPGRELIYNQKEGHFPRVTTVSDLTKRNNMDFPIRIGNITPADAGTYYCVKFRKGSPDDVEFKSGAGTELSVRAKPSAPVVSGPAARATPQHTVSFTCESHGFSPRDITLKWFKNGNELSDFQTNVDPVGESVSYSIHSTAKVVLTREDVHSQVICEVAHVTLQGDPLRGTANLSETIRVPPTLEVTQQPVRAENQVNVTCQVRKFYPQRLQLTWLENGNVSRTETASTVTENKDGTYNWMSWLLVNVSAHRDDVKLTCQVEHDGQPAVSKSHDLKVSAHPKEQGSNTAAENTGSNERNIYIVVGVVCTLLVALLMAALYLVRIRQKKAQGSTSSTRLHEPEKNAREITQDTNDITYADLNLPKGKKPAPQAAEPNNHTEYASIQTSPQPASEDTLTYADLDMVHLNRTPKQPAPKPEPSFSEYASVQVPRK", "experiment": "cell-based ELISA on 293α cells expressing FLAG-tagged SIRPA_V6; Abs 490 normalized to FLAG tag [ii]", "description": "The 293a cells, described in Example 1)-6, were prepared at 5× 10⁵ cells/mL in a 10% FBS-containing DMEM medium. pFLAG V5-DEST-SIRPA_V1-V10, pFLAG V5-DEST-monkey SIRPA, pFLAG V5-DEST-mouse SIRPA, or pFLAG V5-DEST was introduced into the cells using Lipofectamine LTX (Invitrogen), and 100 μL each was aliquoted to a 96-well plate (Corning Incorporated) and cultured overnight in a 10% FBS-containing DMEM medium at 37° C. under a 5% CO₂ condition. The obtained introduced cells were used for cell-based ELISA in a state that they adhered. After the culture supernatant was removed, 50 μL per well of hD13_HIL3, hD13_HIL4h, hD13_H2L2, hD13_H2L3, or cD13 prepared in Examples 6 and 7 or a control antibody was added to each of various SIRPA genes-introduced cells at a final concentration of 0 to 10,000 ng/ml, and the mixture was allowed to stand at 4° C. for one hour. Thereafter, binding to human SIRPA was evaluated in the same manner as in Example 5-1."}}, "data": [{"binder": "humanized anti-SIRPA antibody hD13_H1L3 (antibody, human IgG4 S228P, kappa, F234A L235A, V domains shown, hH1 heavy chain (IgG4proFALA) and hL3 kappa light chain; also called hD13_HIL3; HIL3 antibody) VH: QVQLVESGGGVVQPGRSLRLSCAASGFTFSDYGMIWVRQAPGKGLEWVASISSSSSYIYYADSVKGRFTISRDNSKNRLYLQMNSLRAEDTAVYYCARRYYGFNYPFDYWGQGTMVTVSS VL: DTQLTQSPSSLSASVGQRVTITCGASKSVRTYMHWYQQKPGKQPKLLIYSASNLEAGVPSRFSGSGSGTDFTLTISSLQPEDFATYYCQQSNEPPYTFGQGTKLEIKR", "values": [{"measurement": "IC50 (read off the curve)", "setting": "monkey SIRPA protein", "result": "~0.6", "unit": "µg/mL"}, {"measurement": "Kd", "setting": "SIRPA_V1_IgV", "result": 0.0785, "unit": "nM"}, {"measurement": "IC50 (read off the curve)", "setting": "human SIRPA_V2 protein", "result": "~0.6", "unit": "µg/mL"}, {"measurement": "EC50 (read off the curve)", "setting": "human SIRPA_V6", "result": "~0.04", "unit": "µg/mL"}]}, {"binder": "humanized anti-SIRPA antibody hD13_H1L4 (antibody, human IgG4 S228P, kappa, F234A L235A, V domains shown, hH1 heavy chain (IgG4proFALA) and hL4 kappa light chain; also called hD13_HIL4; hD13_HIL4h) VH: QVQLVESGGGVVQPGRSLRLSCAASGFTFSDYGMIWVRQAPGKGLEWVASISSSSSYIYYADSVKGRFTISRDNSKNRLYLQMNSLRAEDTAVYYCARRYYGFNYPFDYWGQGTMVTVSS VL: DTVLTQSPDSLAVSLGQRATINCGASKSVRTYMHWYQQKPGQQPKLLIYSASNLEAGVPSRFSGSGSGTDFTLTISSLQAEDVAVYYCQQSNEPPYTFGQGTKVEIKR", "values": [{"measurement": "IC50 (read off the curve)", "setting": "monkey SIRPA protein", "result": "~1", "unit": "µg/mL"}, {"measurement": "Kd", "setting": "SIRPA_V1_IgV", "result": 0.107, "unit": "nM"}, {"measurement": "IC50 (read off the curve)", "setting": "human SIRPA_V2 protein", "result": "~0.7", "unit": "µg/mL"}, {"measurement": "EC50 (read off the curve)", "setting": "human SIRPA_V6", "result": "~0.04", "unit": "µg/mL"}]}, {"binder": "humanized anti-SIRPA antibody hD13_H2L2 (antibody, human IgG4 S228P, kappa, F234A L235A, V domains shown, hH2 heavy chain (IgG4proFALA) and hL2 kappa light chain; also called H2L2 antibody) VH: EVQLVESGGGVVQPGRSLRLSCAASGFTFSDYGMIWVRQAPGKGLEWVASISSSSSYIYYADSVKGRFTISRDNSKNTLYLQMNSLRAEDTAVYYCARRYYGFNYPFDYWGQGTMVTVSS VL: AIQLTQSPSSLSASVGQRVTITCGASKSVRTYMHWYQQKPGKAPKLLIYSASNLEAGVPSRFSGSGSGTDFTLTISSLQPEDFATYYCQQSNEPPYTFGQGTKLEIKR", "values": [{"measurement": "IC50 (read off the curve)", "setting": "monkey SIRPA protein", "result": "~0.9", "unit": "µg/mL"}, {"measurement": "Kd", "setting": "SIRPA_V1_IgV", "result": 0.131, "unit": "nM"}, {"measurement": "IC50 (read off the curve)", "setting": "human SIRPA_V2 protein", "result": "~0.8", "unit": "µg/mL"}, {"measurement": "EC50 (read off the curve)", "setting": "human SIRPA_V6", "result": "~0.04", "unit": "µg/mL"}]}, {"binder": "humanized anti-SIRPA antibody hD13_H2L3 (antibody, human IgG4 S228P, kappa, F234A L235A, V domains shown, hH2 heavy chain (IgG4proFALA) and hL3 kappa light chain; also called H2L3 antibody) VH: EVQLVESGGGVVQPGRSLRLSCAASGFTFSDYGMIWVRQAPGKGLEWVASISSSSSYIYYADSVKGRFTISRDNSKNTLYLQMNSLRAEDTAVYYCARRYYGFNYPFDYWGQGTMVTVSS VL: DTQLTQSPSSLSASVGQRVTITCGASKSVRTYMHWYQQKPGKQPKLLIYSASNLEAGVPSRFSGSGSGTDFTLTISSLQPEDFATYYCQQSNEPPYTFGQGTKLEIKR", "values": [{"measurement": "IC50 (read off the curve)", "setting": "monkey SIRPA protein", "result": "~0.8", "unit": "µg/mL"}, {"measurement": "Kd", "setting": "SIRPA_V1_IgV", "result": 0.0859, "unit": "nM"}, {"measurement": "IC50 (read off the curve)", "setting": "human SIRPA_V2 protein", "result": "~0.7", "unit": "µg/mL"}, {"measurement": "EC50 (read off the curve)", "setting": "human SIRPA_V6", "result": "~0.04", "unit": "µg/mL"}]}, {"binder": "human chimeric anti-SIRPA antibody cD13 (antibody, human IgG4 S228P, kappa, F234A L235A, V domains shown, Human IgG4proFALA heavy chain, human kappa light chain; also called cD13 (IgG4pf); human chimeric antibody D13) VH: EVQLVESGGGLVQPGRSLKLSCLASGFTFSDYGMIWVRQAPGKGLEWVASISSSSSYIYYADTVKGRFTISRENAKNTLFLHMTSLRSEDTALYYCARRYYGFNYPFDYWGQGVMVTVSS VL: DTVLTQSPALAVSLGQRVTISCGASKSVRTYMHWYQQKSGQQPKLLIYSASNLEAGVPSRFSGSGSGTDFTLTIDPVEADDIANYYCQQSNEPPYTFGAGTKLELKR", "values": [{"measurement": "IC50 (read off the curve)", "setting": "monkey SIRPA protein", "result": "~0.9", "unit": "µg/mL"}, {"measurement": "IC50 (read off the curve)", "setting": "human SIRPA_V2 protein", "result": "~0.8", "unit": "µg/mL"}, {"measurement": "EC50 (read off the curve)", "setting": "human SIRPA_V6", "result": "~0.04", "unit": "µg/mL"}]}]}
